Measured values reported in the nanobody polyreactivity screen of Harvey et al. (2022).

Test: yeast display, Sf9 membrane polyspecificity reagent, FACS + sequencing; frameworks hold sequencing errors
Method in brief: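 Nanobodies from a synthetic yeast display library (Saccharomyces cerevisiae BJ5465), induced 36–48 hours with galactose, were stained 1 hour at 4 °C with 10% biotinylated, detergent-solubilized Sf9 membrane reagent, enriched on streptavidin microbeads, then FACS-sorted. Anti-HA (expression) and streptavidin (reagent binding) fluorescence set low and high (top ~1%) gates. Polyreactivity labels come from the gate of origin. Genes were colony-PCR amplified, MiSeq 2 × 250 sequenced and filtered by CDR length.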

Sequence	polyreactivity (PSR sort gate)
QVQLVESGGGLVQAGGSLRLSCAASGRIFPSYAMGWYRQAPGKERELVATISSGGRTYYADSVKGRFTISRDNAKNTVYLQMNSLKPEDTEVYYCNADRTQDRNPYTYATFDYWGQGTQVTVSS	low polyreactivity
QVQLVESGGGLVQAGGSLRLSCAASGSTFDSYAIGWYRQAPGKERELVAGISIVGSTNYADSVKGRFTISPDNAKNTVYLQLNSLKPEDTAVYYCNAGYFRGSNAIKVRLTYDHWGQGTQVTVSS	low polyreactivity
QVQLVESGGGLVHAGGSLRLSCAACGRIFGPYDMGWYRQAPGKEMELVAAISWSGGNTYYADSVKGRFTISLDNAKNTVYLQMNSLKPEDTAVYYCNADYYPSSYPYDYWGQGTQVTVSS	low polyreactivity
QVQLVESGGGLVQAGGSLRLSCAASGFIFPYNTMGWYRQATAKERELVAAIRYSAGRTYYADSVKGRFTISRDNAKNTVYLQMNSLKPEDTEVYYCNGVSSGDMDYWGQGTQVTVSS	high polyreactivity
QVQLVESGGGLVQAGGSLRLSCAASGSILDIYAMGWYRQAPGKERELVAGISTSGGSTYYADSVKGRFTISRDNAKNTVYLQMNSLNPEDTAVYYCAKDYGYQGLTRTLYCAYLEYDYWGQGTQVTVSS	low polyreactivity
QVQLVESGAGLVQAGGSLRLSCAASGRNFWYYAMGLYRQAPGKERELVAGITYGDGSTYYADSVKGRFTISRDNAKNTVYLQMNSLKPEDTAVYYCAVDLRSYWFRYGFDYWGQGTQVTVSS	low polyreactivity
QVQLVESGGGLVQAGGSRRLSCAASGSIFYYNTMGWSRQAPGKERELVAAMRFDDGSTYYADSVKGRFTISRDNAKYTVYLQMNSLKPEDTAVYYCSADWIVVSEFGLDYHMDYWGQGNQVTVSS	low polyreactivity
QVQLVESGGGLVQAGGSLRLSCAASGRIFTFNAMGWYRQAPGKERELVAAINSGGSRTYYADSVKGRFTISRDNAKNTVYLQMNSLKPEDTAVYYCAAGYSGWVRSSSPFYYWGQGTQVTVSS	high polyreactivity
QVRLVESGGGLVQAGGSLRLSCAASGSILYRYTMGWYRQAPGKETELVAAITWSDGSTYYSDSVKGRFTISRDNAKNTVYLQKNSLKPEDTAVYDCAADLWLDVDHEWSGGDYWGQGTQVTVSS	low polyreactivity
QVQLVESGGGLVQAGGSLRLSCAASGRIFPVYVMGWYRQAPGKEREFVASISWRGGSTFYADSVKGRFTISRDNAKNTVYLQMNSLKPEDTAVYYCAADYWSSDSSRGTMYYWGQGTQVTVSS	low polyreactivity
QVQLVESGGGLVQAGGSLRLSCAATGSIFNFYAMGWYRQAPGKERELVAAIDQNGGSTYYADSVKGRFTISRDNAKNTVYLQMNSLKPVDTAVYYCAKDHQSGRRTYTYRYDYWGQGTQVTVSS	low polyreactivity
QVQLVESGGGLVQAGGSLRLSCAASGYTFRSYTMGWYRQAPGKERELVAAITSRGTSTYYADSVKGRFTISRDNAKNTVYLQMNSLKPEDTAVYYCAAPIYNGYASWQVYYWGQGTQVTVSS	high polyreactivity
QVQLVESGGGLVQAGGSLRLSCAASGRIFRAYTMGWYRPAPGKERELVAAISTRSGRTYYADSVKGRFTISRDKEKNTVYLQMNSLKPEDTAVYYCAADRSGSAWYGYWGQGTQVTVSS	high polyreactivity
QVQLVESGGGLVQAGGSLRLSCAASGRTFHSYAMGWYRPAPGKETELVAGISWGGTRTTYADSVTGRFTISRDNAKNTVYLQMNSLKPEDTAVYYCNAVYYALGRSPPDYGYWGQGTQVTVSS	low polyreactivity
QVQLVESGGGLVQAGGSLRLSCAASGFTFGYYAMGWYRQATGKERELVATITGSGVRTYYADSLKGRFTISRDNAKNSVYLQMNSLKPEDTAVYYCNKVFSIPWQGVRFDYWGQGTQVTVSS	high polyreactivity
QVQLVESGGGLLQAGGSLRLSCAASGFTIDRYAMGWYRQAPGKERELVAAISWGGGSTYYAVSVKGRFTISRDNAKNTVYLQMNSLKPEDTAVYYCAASRGFYHPKYESWGQGTQVTVSS	high polyreactivity

Sequence	polyreactivity (PSR sort gate)
QVQLVESGGGLVQAGGSLRLSCAASGIIYAYYAMGWYRQAPGKERELVAAISRSGGITYYADSVKGRFTISRDNAKNTVYLQMNSLKPEDTAVYYCARYSSRPYDYWGQGTQVTVSS	high polyreactivity
QVQLVESGGGLVQAGGSLRLSCAASGRIFNIYAMGWYRQAPGKERELVAAISGSGGRTSYADSVKGRFTISRDNAKNTVYLQMNSLKPEDTAVYYCAADYSYYTSFRYDYWGQGTQVTVSS	low polyreactivity
RVQLVESGGGLVQAGGSLRLSCAASGSTISRYAMGWYRQAPGKERELVASISRSGTSTYYADSVKGRFTISRDNAKNTVYLQMNSLKPEDTAVYYCNKRWATSIQYRYNYWGQGTQVTVSS	high polyreactivity
QVQLVESGGGLVQAGGSLRLSCAASGITFYVYTMGWYRQAPGKERELVAAINGSGGSTNYADSVKGRFPISRDNAKNTVYLQMNSLKPDDTAVYYCAADWSLSLYDYWGQGTQVSVSS	low polyreactivity
QVQLVESGGGLVQAGGSLRLSCAASGSLFSGYTMAWYSQAPGKERELVAAITRSGGRTYYADSVKGRFTISRDNAKNTVYLQMKSLKPEVTAVNYCAAVDRRGANYNYWGQGTQVTVSS	high polyreactivity
QVQLVESGGGLVQAGGSLRLSCAASGFIFSYYTMGWYRQEPGTERELVADISWSGGSSYYADSVKGRFTISRDNAKNTVYLQMNSLKPEDTAVYYCNAEGWTAFLDQYDYWGQGTQVTVSS	high polyreactivity
QVQLVESGGGLVQAGGSLRVSCAASGRTFRYYDMGWYRQAPGKEREFVAAITWRGGSTYYADSVKGRFTISRDNAKNTVYLQMNSLKPEDTAVYYCAADPFDDQLQYDYWGQGTQVTVSS	low polyreactivity
QVQLVESGGGLVQAGGSLRLICAASGFTFCLYAMGWYRQAPGKERELVADIDWDGGTYYADSVKGRFTISRDNAKNTVYLQMNSLKPEDTAVYYCAAELTEWTNGFDYWGQGTQETVSS	high polyreactivity
QVQLVESGGGLVQAGGSLRLSCAASGFTFLGYAMGWYRQAPGKERELVAAITRGGSTYYADSVKGRFTISRDNAKNTVYLQMNSLKPEDTAVYYCAARARAGGYGYWGQGTQVTVSS	high polyreactivity
QVQLVESGGGLVQAGGSLRLSCAASGGTFINYAMGWYRQAPGKERELVAGISQSGDSTYYADSVKGRFTISRDNAKNTVYLQMNSLKPEDTAVYYCNADAVAQQYDWWENYDYWGQGTQVTVSS	high polyreactivity
QVQLVESGGGVVQAGGTLRLSCAASGSLFPYNVMGWYRQAPGKERELVAVITGSTGRTYYADSVKGRFTISRDNAKNTVYLQMNSLKPEDTAVYYCAKRSYWAPYDYWGQGTQVTVSS	high polyreactivity
QVQLVESGGGLVQAGGSLRLSCAASGIILDPNAMGWSRQAPGKERELVAGITRSGVSTYYAESVKGRFTISRDNAKNTVYLKMNSLKPEDTAVYYCAKDRISGSKGEDDDYWGKGTQVTVSS	low polyreactivity
QVQLVESGGGLVQAGGSLRLSCAASGSIFVTYAMGWYRQAPGKERELVASITGRGGSTYYADSVKGRFTISRDNAKNTVYLQMNSLKPEDTAVYYCAARVASRHGWHNYWGQGTQVSVSS	high polyreactivity
QVQLVESGGGLVQAGGSLRLSCAASGRIFYYNDMGWYRQAPGKERELVAAITWTDDGTYYADSVKGRFTISRDNAKNTVFLQMNSLKPEDTAVYYCAAESFYGFEYWGQGTQVTVSS	low polyreactivity
QVQLEESGGRLVQAGCSLRLSCAASGYIFRKYAMGWYRQAPGKEWELVADISSSGGSTYYADSVKGRFTISRDNAKNTVYLQMNSLKPEDTAGYYCAKDRKSSRRINRMDYWGQGTQVTVSS	high polyreactivity
